# Assay results published in publication PMC2808332, “Expanding the Substantial Interactome of NEMO Using Protein Microarrays” (PLoS ONE, 2010).
# B1: Cyclic AMP phosphoprotein, 19 kDa (natural protein, human, UniProt P56211-1 1-112, looked up)
# chain: MSAEVPEAASAEEQKEMEDKVTSPEKAEEAKLKARYPHLGQKPGGSDFLRKRLQKGQKYFDSGDYNMAKAKMKNKQLPTAAPDKTEVTGDHIPTPQDLPQRKPSLVASKLAG
# notes: Cyclic AMP phosphoprotein, 19 kDa, human; also called ARPP-19; source: insect cell/baculovirus, purified, spotted (Invitrogen Protoarray v4.0)
# B2: Odontogenic, ameloblast associated (natural protein, human, UniProt A1E959 16-279, looked up)
# chain: APLIPQRLMSASNSNELLLNLNNGQLLPLQLQGPLNSWIPPFSGILQQQQQAQIPGLSQFSLSALDQFAGLLPNQIPLTGEASFAQGAQAGQVDPLQLQTPPQTQPGPSHVMPYVFSFKMPQEQGQMFQYYPVYMVLPWEQPQQTVPRSPQQTRQQQYEEQIPFYAQFGYIPQLAEPAISGGQQQLAFDPQLGTAPEIAVMSTGEEIPYLQKEAINFRHDSAGVFMPSTSPKPSTTNVFTSAVDQTITPELPEEKDKTDSLREP
# notes: Odontogenic, ameloblast associated, human; also called ODAM; source: insect cell/baculovirus, purified, spotted (Invitrogen Protoarray v4.0)
# B3: Arginine vasopressin-induced 1 (natural protein, human, UniProt Q5T686 1-147, looked up)
# chain: MGTPASVVSEPPPWQAPIEARGRKQASANIFQDAELLQIQALFQRSGDQLAEERAQIIWECAGDHRVAEALKRLRRKRPPRQKPLGHSLHHCSRLRILEPHSALANPQSATETASSEQYLHSRKKSARIRRNWRKSGPTSYLHQIRH
# notes: Arginine vasopressin-induced 1, human; also called AVPI1; source: insect cell/baculovirus, purified, spotted (Invitrogen Protoarray v4.0)
# B4: Acyl-Coenzyme A binding domain containing 6 (natural protein, human, UniProt Q9BR61 1-282, looked up)
# chain: MASSFLPAGAITGDSGGELSSGDDSGEVEFPHSPEIEETSCLAELFEKAAAHLQGLIQVASREQLLYLYARYKQVKVGNCNTPKPSFFDFEGKQKWEAWKALGDSSPSQAMQEYIAVVKKLDPGWNPQIPEKKGKEANTGFGGPVISSLYHEETIREEDKNIFDYCRENNIDHITKAIKSKNVDVNVKDEEGRALLHWACDRGHKELVTVLLQHRADINCQDNEGQTALHYASACEFLDIVELLLQSGADPTLRDQDGCLPEEVTGCKTVSLVLQRHTTGKA
# notes: also called ACBD6; source: insect cell/baculovirus, purified, spotted (Invitrogen Protoarray v4.0)
# B5: AMME chromosomal region gene 1-like (natural protein, human, UniProt Q6DCA0 1-310, looked up)
# chain: MGKRRCVPPLEPKLAAGCCGVKKPKLSGSGTHSHGNQSTTVPGSSSGPLQNHQHVDSSSGRENVSDLTLGPGNSPITRMNPASGALSPLPRPNGTANTTKNLVVTAEMCCYCFDVLYCHLYGFPQPRLPRFTNDPYPLFVTWKTGRDKRLRGCIGTFSAMNLHSGLREYTLTSALKDSRFPPLTREELPKLFCSVSLLTNFEDASDYLDWEVGVHGIRIEFINEKGVKRTATYLPEVAKEQDWDQIQTIDSLLRKGGFKAPITSEFRKTIKLTRYRSEKVTISYAEYIASRQHCFQNGTLHAPPLYNHYS
# notes: AMME chromosomal region gene 1-like, human; also called AMMECR1L; source: insect cell/baculovirus, purified, spotted (Invitrogen Protoarray v4.0)
# B6: Centrin EF-hand protein 3 (natural protein, human, UniProt O15182 1-167, looked up)
# chain: MSLALRSELVVDKTKRKKRRELSEEQKQEIKDAFELFDTDKDEAIDYHELKVAMRALGFDVKKADVLKILKDYDREATGKITFEDFNEVVTDWILERDPHEEILKAFKLFDDDDSGKISLRNLRRVARELGENMSDEELRAMIEEFDKDGDGEINQEEFIAIMTGDI
# notes: Centrin EF-hand protein 3, human; also called CETN3; source: insect cell/baculovirus, purified, spotted (Invitrogen Protoarray v4.0)
# B7: Centaurin, alpha 2 (natural protein, human, UniProt Q9NPF8 1-381, looked up)
# chain: MGDRERNKKRLLELLRAPDTGNAHCADCGAADPDWASYKLGIFICLNCCGVHRNFPDISRVKSVRLDFWDDSIVEFMIHNGNLRVKAKFEARVPAFYYIPQANDCLVLKEQWIRAKYERREFMADGETISLPGNREGFLWKRGRDNSQFLRRKFVLLAREGLLKYFTKEQGKSPKAVISIKDLNATFQTEKIGHPHGLQITYRRDGHTRNLFVYHESGKEIVDWFNALRAARLQYLKMAFPELPESELVPFLTRNYLKQGFMEKTGPKQKEPFKKRWFALDCHERRLLYYKNPLDAFEQGQVFLGNKEQGYEAYEDLPKGIRGNRWKAGLTIVTPERRFVLTCPSEKEQQEWLESLRGVLSSPLTPLNRLTASTESGRSSR
# notes: Centaurin, alpha 2, human; also called CENTA2; source: insect cell/baculovirus, purified, spotted (Invitrogen Protoarray v4.0)
# B8: NOTCH-regulated ankyrin repeat protein (natural protein, human, UniProt Q7Z6K4 1-114, looked up)
# chain: MSQAELSTCSAPQTQRIFQEAVRKGNTQELQSLLQNMTNCEFNVNSFGPEGQTALHQSVIDGNLELVKLLVKFGADIRLANRDGWSALHIAAFGGHQDIVLYLITKAKYAASGR
# notes: NOTCH-regulated ankyrin repeat protein, human; also called NRARP; source: insect cell/baculovirus, purified, spotted (Invitrogen Protoarray v4.0)
# B9: Pleckstrin homology domain containing, family J member 1 (natural protein, human, UniProt Q9NW61 1-149, looked up)
# chain: MRYNEKELQALSRQPAEMAAELGMRGPKKGSVLKRRLVKLVVNFLFYFRTDEAEPVGALLLERCRVVREEPGTFSISFIEDPERKYHFECSSEEQCQEWMEALRRASYEFMRRSLIFYRNEIRKVTGKDPLEQFGISEEARFQLSGLQA
# notes: Pleckstrin homology domain containing, family J member 1, human; also called PLEKHJ1; source: insect cell/baculovirus, purified, spotted (Invitrogen Protoarray v4.0)
# Target: T1, NEMO (NF-κB essential modulator), tag-free, biotinylated (human, UniProt Q9Y6K9 1-419, biotin (in vitro biotinylation kit, biotin:NEMO molar ratio 9:1))
# T1 construct: NEMO, NF-κB essential modulator, human, 48 kDa; also called biotinylated NEMO; biotin-NEMO; source: E. coli BL21(DE3), purified (glutathione sepharose), GST removed with thrombin, biotinylated in vitro
# Experiment: peptide or protein array; Invitrogen Protoarray v4.0, about 8,400 human proteins spotted on nitrocellulose-coated glass slides; 10 µg biotinylated tag-free NEMO in 120 µl probing buffer (PBS, 0.5 mM DTT, 5 mM MgCl2, 5% glycerol, 0.05% Triton X-100), 4°C, 1.5 h; bound NEMO detected with labelled streptavidin; hits Z-score > 3, hits of the biotin-GST control array subtracted
# Conditions: both partners purified
row,Binder,binding result
1,B1,binds
2,B2,binds
3,B3,binds
4,B4,binds
5,B5,binds
6,B6,binds
7,B7,binds
8,B8,binds
9,B9,binds
